Laboratory results taken from publication PMC6048534.

Experiments:
[1] = target: CofB (minor pilin of CFA/III without its N-terminal 28 residues; homotrimer) (enterotoxigenic Escherichia coli (ETEC)); assay: AUC
[2] = target: CofB (minor pilin of CFA/III without its N-terminal 28 residues; homotrimer) (enterotoxigenic Escherichia coli (ETEC)); assay: ITC

Substance | stoichiometry N [1] | Kd [2] [µM] | stoichiometry N (CofJ per three CofB molecules) [1]
CofB (minor pilin of CFA/III without its N-terminal 28 residues; homotrimer) (domain or fragment) | 3 |  | 
CofJ (1–24) peptide (synthesized peptide consisting of CofJ residues 1–24) |  | 8.8 | 
CofJ (4–16) peptide (synthetic 13-residue peptide comprising CofJ residues 4–16) |  | 4.8 | 
CofJ (intact recombinant secreted protein of the CFA/III operon) (natural protein) |  | 0.14 | 1
